Sequences and labels used below:
B1: LINE1-full (parent)
chain: UACGUAGGUGGUUUUCCCCUGAUAGUGCUAAGGGGGCCUGGAAGUUUGGACUGGGCAGAGCUCAACACAGCGUGGCAAAGUGGCUGUGGCUAGACUGCCUCUCUGGAUUCCUCGUCACUCAGCAGGGCAUCUCUGAGAGAAAUGCC

This data set covers variants of B1. Put plainly: self-cleavage, relative activity (ratio to wild type); higher = more cleavage; in vitro, sequencing; the parent is a self-cleaving ribozyme.
Consider UACGUAGGUGGUUUUCCCCUGAUUGUGCUAAGGGGGCCCGGAAGUUUGGACUGGGCAGAGCUCAACACAGCGUGGCAAAGUGGCUGUGGCUAGACUGCCUCUCUGGAUUCCUCGUCACUCAGCAGGGCAUCUCUGAGAGAAAUGCC [A24U U39C], for which the self-cleavage was 1.47.

UACGUAGGUGGUUUUCCCCUGAUUGUGCUAAGGGGGCCUGGAAGCUUGGACUGGGCAGAGCUCAACACAGCGUGGCAAAGUGGCUGUGGCUAGACUGCCUCUCUGGAUUCCUCGUCACUCAGCAGGGCAUCUCUGAGAGAAAUGCC [A24U U45C]: the self-cleavage worked out at 1.19.

Regarding UACGUAGGUGGUUUUCCCCUGAUUGUGCUAAGGGGGCCUGGAAGAUUGGACUGGGCAGAGCUCAACACAGCGUGGCAAAGUGGCUGUGGCUAGACUGCCUCUCUGGAUUCCUCGUCACUCAGCAGGGCAUCUCUGAGAGAAAUGCC [A24U U45A], the self-cleavage was 0.82.

In the case of UACGUAGGUGGUUUUCCCCUGAUUGUGCUAAGGGGGCCUGGAAGUUUGGACUGGGCAGAGCUCAACACAGCGUGGCAAAGUGGCCGUGGCUAGACUGCCUCUCUGGAUUCCUCGUCACUCAGCAGGGCAUCUCUGAGAGAAAUGCC [A24U U85C], the self-cleavage stood at 0.15.

On to UACGUAGGUGGUUUUCCCCUGAUUGUGCUAAGGGGGCCUGGAAGUUUGGACUGGGCAGAGCUCAACACAGCGUGGCAAAGUGGCUGUGGCUAGACUGCCUCUCUGGAUUCCCCGUCACUCAGCAGGGCAUCUCUGAGAGAAAUGCC [A24U U112C], for which the self-cleavage was found to be 1.28.

For UACGUAGGUGGUUUUCCCCUGAUUGUGCUAAGGGGGCCUGGAAGUUUGGACUGGGCAGAGCUCAACACAGCGUGGCAAAGUGGCUGCGGCUAGACUGCCUCUCUGGAUUCCUCGUCACUCAGCAGGGCAUCUCUGAGAGAAAUGCC [A24U U87C], the self-cleavage is 0.3.

With UACGUAGGUGGUUUUCCCCUGAUUGUGCUAAGGGGGCCUGGAAGUUUGGACUGGGCAGAGCUCAACACAGCGUGGCAAAGUGGCUGUGGCUAGACUGCCUCUCUGGAUUCCUCGACACUCAGCAGGGCAUCUCUGAGAGAAAUGCC [A24U U115A], the self-cleavage stood at 1.54.

In the case of UACGUAGGUGGUUUUCCCCUGAUUGUGCUAAGGGGGCCUGGAAGUUUGGACUGGGCAGAGCUCAACACAGCGUGGCAAAGUGGCUGUGGCUAGACUGCCUCUCUGGAUUCCUCGCCACUCAGCAGGGCAUCUCUGAGAGAAAUGCC [A24U U115C], the self-cleavage worked out at 1.92.

In the case of UACGUAGGUGGUUUUCCCCUGAUUGUGCUAAGGGGGCCUGGAAGUCUGGACUGGGCAGAGCUCAACACAGCGUGGCAAAGUGGCUGUGGCUAGACUGCCUCUCUGGAUUCCUCGUCACUCAGCAGGGCAUCUCUGAGAGAAAUGCC [A24U U46C], the self-cleavage came to 1.54.

Regarding UACGUAGGUGGUUUUCCCCUGAUUGUGCUAAGGGGGCCUGGAAGUUUGGACUGGGCAGAGCUCAACACAGCGUGGCAAAGUGGCUGUGGCCAGACUGCCUCUCUGGAUUCCUCGUCACUCAGCAGGGCAUCUCUGAGAGAAAUGCC [A24U U91C], the self-cleavage was 0.45.

Consider UACGUAGGUGGUUUUCCCCUGAUUGUGCUAAGGGGGCCUGGAAGUUUGGACUGGGCAGAGCUCAACACAGCGCGGCAAAGUGGCUGUGGCUAGACUGCCUCUCUGGAUUCCUCGUCACUCAGCAGGGCAUCUCUGAGAGAAAUGCC [A24U U73C], for which the self-cleavage worked out at 1.79.

For UACGUAGGUGGUUUUCCCCUGAUUGUGCUAAGGGGGCCUGGAAGUUUGGACUGGGCAGAGCUCAACACAGCGUGGCAAAGUGGCUGUGGCUAGACUGCCUCUCUGGACUCCUCGUCACUCAGCAGGGCAUCUCUGAGAGAAAUGCC [A24U U108C], the self-cleavage was 1.33.

Take UACGUAGGUGGUUUUCCCCUGAUUGUGCUAAGGGGGCCUGGAAGUUUGGACUGGGCAGAGCUCAACACAGCGUGGCAAAGUGGCUGUGGCUAGACUGCCUCUCUGGAAUCCUCGUCACUCAGCAGGGCAUCUCUGAGAGAAAUGCC [A24U U108A]: the self-cleavage worked out at 1.51.

Consider UACGUAGGUGGUUUUCCCCUGAUUGUGCUAAGGGGGCCUGGAAGUUUGGACUGGGCAGAGCUCAACACAGCGUGGCAAAGUGGCUGUGGCUAGACAGCCUCUCUGGAUUCCUCGUCACUCAGCAGGGCAUCUCUGAGAGAAAUGCC [A24U U96A], for which the self-cleavage amounted to 0.07.

On to UACGUAGGUGGUUUUCCCCUGAUUGUGCUAAGGGGGCCUGGAAGUUUGGACUGGGCAGAGCUCAACACAGCGUGGCAAAGUGGCUGUGGCUAGACCGCCUCUCUGGAUUCCUCGUCACUCAGCAGGGCAUCUCUGAGAGAAAUGCC [A24U U96C], for which the self-cleavage is 0.07.

On to UACGUAGGUGGUUUUCCCCUGAUUGUGCUAAGGGGGCCUGGAAGUUUGGACUGGGCAGAGCUCAACACAGCGUGGCAAAGUGGCUGUGGCUAGACUGCCUCUCCGGAUUCCUCGUCACUCAGCAGGGCAUCUCUGAGAGAAAUGCC [A24U U104C], for which the self-cleavage turned out to be 1.25.

On to UACGUAGGUGGUUUUCCCCUGAUUGUGCUAAGGGGGCCUGGAAGUUUGGACUGGGCAGAGCUCAACACAGCGUGGCAAAGUGGCUGUGGCUAGACUGCCUCUCAGGAUUCCUCGUCACUCAGCAGGGCAUCUCUGAGAGAAAUGCC [A24U U104A], for which the self-cleavage amounted to 0.65.

As to UACGUAGGUGGUUUUCCCCUGAUUGUGCUAAGGGGGCCUGGAAGUUUGGACUGGGCAGAGCUCAACACAGCGUGGCAAAGCGGCUGUGGCUAGACUGCCUCUCUGGAUUCCUCGUCACUCAGCAGGGCAUCUCUGAGAGAAAUGCC [A24U U81C], the self-cleavage came out at 1.24.

On to UACGUAGGUGGUUUUCCCCUGAUUGUGCUAAGGGGGCCUGGAAGUUUGGACUGGGCAGAGCCCAACACAGCGUGGCAAAGUGGCUGUGGCUAGACUGCCUCUCUGGAUUCCUCGUCACUCAGCAGGGCAUCUCUGAGAGAAAUGCC [A24U U62C], for which the self-cleavage was 0.08.

In the case of UACGUAGGUGGUUUUCCCCUGAUUGUGCUAAGGGGGCCUGGAAGUUAGGACUGGGCAGAGCUCAACACAGCGUGGCAAAGUGGCUGUGGCUAGACUGCCUCUCUGGAUUCCUCGUCACUCAGCAGGGCAUCUCUGAGAGAAAUGCC [A24U U47A], the self-cleavage turned out to be 0.99.

The values are drawn from the RNAGym collection of RNA variant scans (doi:10.7554/elife.90254).
